Experimental data from paper PMC6414729.

Experiments:
[1] = substrate: CB-PB phycobilisome (truncated phycobilisome of the CB mutant of Synechocystis PCC 6803) (Synechocystis PCC 6803) (UniProt Q01951)
[2] = substrate: CB-PB phycobilisome (truncated phycobilisome of the CB mutant of Synechocystis PCC 6803) (Synechocystis PCC 6803) (UniProt Q01951); assay: bulk fluorescence quenching (emission spectrum and lifetime decay); OCP:CB-PB 40:1 in 0.8 M phosphate buffer, illuminated with white light 10 min at 23 °C; bulk sample ~25 nM
[3] = compound: CB-PB phycobilisome (truncated phycobilisome of the CB mutant of Synechocystis PCC 6803) (Synechocystis PCC 6803) (UniProt Q01951); assay: ABEL trap single-molecule fluorescence spectroscopy; pre-activated and pre-bound OCP + CB-PB (40:1) diluted to ~10 pM in 0.8 M phosphate buffer pH 7.5 with 1 M sucrose; single complexes in free solution; followed up to 5 h after dilution
[4] = substrate: CB-PB phycobilisome (truncated phycobilisome of the CB mutant of Synechocystis PCC 6803) (Synechocystis PCC 6803) (UniProt Q01951); remark: listed apart in the source

brightness of quenched state Q1 relative to unquenched CB-PB [1]: 11%
brightness of quenched state Q2 relative to unquenched CB-PB [1]: 6%
percent of complexes quenched [2]: > 95%
stoichiometry N [3]: 2
bulk fluorescence emission of fully quenched OCP + CB-PB (40:1) relative to unquenched CB-PB [4]: 9%
bulk fluorescence lifetime, shorter component of the quenched OCP + CB-PB complex (unquenched 1.6 ns) [4]: 0.1 ns
B1: Orange Carotenoid Protein, photoactivated red form (OCP^R) (natural protein)
chain: MPFTIDSARGIFPNTLAADVVPATIARFSQLNAEDQLALIWFAYLEMGKTLTIAAPGAASMQLAENALKEIQAMGPLQQTQAMCDLANRADTPLCRTYASWSPNIKLGFWYRLGELMEQGFVAPIPAGYQLSANANAVLATIQGLESGQQITVLRNAVVDMGFTAGKDGKRIAEPVVPPQDTASRTKVSIEGVTNATVLNYMDNLNANDFDTLIELFTSDGALQPPFQRPIVGKENVLRFFREECQNLKLIPERGVTEPAEDGFTQIKVTGKVQTPWFGGNVGMNIAWRFLLNPEGKIFFVAIDLLASPKELLNFA
